# Test results published in paper PMC2959089, “The intriguing Cyclophilin A-HIV-1 Vpr interaction: prolyl cis/trans isomerisation catalysis and specific binding” (BMC Structural Biology, 2010).
# Target: recombinant human Cyclophilin A (CypA) (human) (UniProt P62937)
# Test: SPR
# Chain of recombinant human Cyclophilin A (CypA) (human) (P62937 whole entry): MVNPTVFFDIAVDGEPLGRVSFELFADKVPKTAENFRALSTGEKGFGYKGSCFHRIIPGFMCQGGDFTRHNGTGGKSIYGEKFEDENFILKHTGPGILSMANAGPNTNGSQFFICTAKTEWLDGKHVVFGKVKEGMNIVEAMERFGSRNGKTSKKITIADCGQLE
Substance,Kd,"ka1 (two-state model, association)","ka2 (two-state model, forward rate)","kd1 (two-state model, dissociation)","kd2 (two-state model, backward rate)"
"synthetic mutant HIV-1 Vpr peptide sVpr^1-40 P5,10,14N",6.15 mM,46 M⁻¹ s⁻¹,0.0047 s⁻¹,0.56 s⁻¹,0.0048 s⁻¹
synthetic HIV-1 Vpr peptide sVpr^1-40,0.284 mM,752 M⁻¹ s⁻¹,0.0073 s⁻¹,0.37 s⁻¹,0.0099 s⁻¹
